The source of these data is US20250339531A1, “DUX4 POLYPEPTIDES AND NUCLEIC ACIDS FOR TREATING INFLAMMATORY AND AUTOIMMUNE CONDITIONS” (Fred Hutchinson Cancer Center, priority 2021, published 2025).

This assay concerns proteins that co-immunoprecipitated with DUX4-CTD constructs expressed in MB135 myoblasts. The assay is described as follows: LC-MS of proteins co-immunoprecipitated with DUX4-CTD (Table 1) and western validation. Set-up: key to 4. mL1dL2 + Dox + IFNG / 4. + IFNG mix / 4. longCTD + Dox + IFNG / 3. + IFNg + Dox longCTD / 3. + Dox longCTD / 3. + IFNG longCTD: peptide-spectrum matches (PSMs) per protein. The settings on record: kind of count not given; for 4. + IFNG mix: LC-MS value per protein co-immunoprecipitated from MB135 myoblasts, + IFNG mix sample (no Dox); for 4. mL1dL2 + Dox + IFNG: LC-MS value per protein co-immunoprecipitated with DUX4-CTD construct mL1dL2 in MB135 myoblasts. The format is binding, human. In short, it runs like this: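 FLAG-tagged DUX4-CTD expressed in doxycycline-induced MB135 myoblasts, some also IFNG-treated; nuclear lysates in pH 7.4 NP-40 IP buffer were pre-cleared, then anti-FLAG immunoprecipitated 3 h at 4 °C. For LC-MS, FLAG-peptide elution, in-gel trypsin digest, Orbitrap analysis; proteins with ≥2 PSMs in both experiments categorised and ranked by total PSMs.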

B1: NONO (protein, UniProt Q15233 1-471, looked up)
Non-POU domain-containing …: MQSNKTFNLEKQNHTPRKHHQHHHQQQHHQQQQQQPPPPPIPANGQQASSQNEGLTIDLKNFRKPGEKTFTQRSRLFVGNLPPDITEEEMRKLFEKYGKAGEVFIHKDKGFGFIRLETRTLAEIAKVELDNMPLRGKQLRVRFACHSASLTVRNLPQYVSNELLEEAFSVFGQVERAVVIVDDRGRPSGKGIVEFSGKPAARKALDRCSEGSFLLTTFPRPVTVEPMDQLDDEEGLPEKLVIKNQQFHKEREQPPRFAQPGSFEYEYAMRWKALIEMEKQQQDQVDRNIKEAREKLEMEMEAARHEHQVMLMRQDLMRRQEELRRMEELHNQEVQKRKQLELRQEEERRRREEEMRRQQEEMMRRQQEGFKGTFPDAREQEIRMGQMAMGGAMGINNRGAMPPAPVPAGTPAPPGPATMMPDGTLGLTPPTTERFGQAATMEGIGAIGGTPPAFNRAAPGAEFAPNKRRRY
In the case of B1, the “4. + IFNG mix” value is 1.

B2: G3BP2 (protein)
chain: VMEKPSPLLVGREFVRQYYTLLNKAPEYLHRFYGRNSSYVHGGVDASGKPQEAVYGQNDIHHKVLSLNFSECHTKIRHVDAHATLSDGVVVQVMGLLSNSGQPERKFMQTFVLAPEGSVPNKFYVHNDMFRYEDEVFGDSEPELDEESEDEVEEEQEERQPSPEPVQENANSGYYEAHPVTNGIEEPLEESSHEPEPEPESETKTEELKPQVEEKNLEELEEKSTTPPPAEPVSLPQEPPKAFSWASVTSKNLPPSGTVSSSGIPPHVKAPVSQPRVEAKPEVQSQPPRVREQRPRERPGFPPRGPRPGRGDMEQNDSDNRRIIRYPDSHQLFVGNLPHDIDENELKEFFMSFGNVVELRINTKGVGGKLPNFGFVVFDDSEPVQRILIAKPIMFRGEVRLNVEEKKTRAARERETRGGGDDRRDIRRNDRGPGGPRGIVGGGMMRDRDGRGPPPRGGMAQKLGSGRGTGQMEGRFTGQRR
As for B2, the “4. mL1dL2 + Dox + IFNG” value was determined as 1.

B3: NAP1L1 (protein)
chain: ADIDNKEQSELDQDLDDVEEVEEEETGEETKLKARQLTVQMMQNPQILAALQERLDGLVETPTGYIESLPRVVKRRVNALKNLQVKCAQIEAKFYEEVHDLERKYAVLYQPLFDKRFEIINAIYEPTEEECEWKPDEEDEISEELKEKAKIEDEKKDEEKEDPKGIPEFWLTVFKNVDLLSDMVQEHDEPILKHLKDIKVKFSDAGQPMSFVLEFHFEPNEYFTNEVLTKTYRMRSEPDDSDPFSFDGPEIMGCTGCQIDWKKGKNVTLKTIKKKQKHKGRGTVRTVTKTVSNDSFFNFFAPPEVPESGDLDDDAEAILAADFEIGHFLRERIIPRSVLYFTGEAIEDDDDDYDEEGEEADEEGEEEGDEENDPDYDPKKDQNPAEC
B3: the “4. mL1dL2 + Dox + IFNG” value is reported as 2.

B4: DDX3X (protein)
chain: SHVAVENALGLDQQFAGLDLNSSDNQSGGSTASKGRYIPPHLRNREATKGFYDKDSSGWSSSKDKDAYSSFGSRSDSRGKSSFFSDRGSGSRGRFDDRGRSDYDGIGSRGDRSGFGKFERGGNSRWCDKSDEDDWSKPLPPSERLEQELFSGGNTGINFEKYDDIPVEATGNNCPPHIESFSDVEMGEIIMGNIELTRYTRPTPVQKHAIPIIKEKRDLMACAQTGSGKTAAFLLPILSQIYSDGPGEALRAMKENGRYGRRKQYPISLVLAPTRELAVQIYEEARKFSYRSRVRPCVVYGGADIGQQIRDLERGCHLLVATPGRLVDMMERGKIGLDFCKYLVLDEADRMLDMGFEPQIRRIVEQDTMPPKGVRHTMMFSATFPKEIQMLARDFLDEYIFLAVGRVGSTSENITQKVVWVEESDKRSFLLDLLNATGKDSLTLVFVETKKGADSLEDFLYHEGYACTSIHGDRSQRDREEALHQFRSGKSPILVATAVAARGLDISNVKHVINFDLPSDIEEYVHRIGRTGRVGNLGLATSFFNERNINITKDLLDLLVEAKQEVPSWLENMAYEHHYKGSSRGRSKSSRFSGGFGARDYRQSSGASSSSFSSSRASSSRSGGGGHGSSRGFGGGGYGGFYNSDGYGGNYNSQGVDWWGN
For B4, the “4. + IFNG mix” value was 1 and the “4. mL1dL2 + Dox + IFNG” value came out at 2.

B5: KANK2 (protein)
chain: MAQVLHVPAPFPGTPGPASPPAFPAKDPDPPYSVETPYGYRLDLDFLKYVDDIEKGHTLRRVAVQRRPRLSSLPRGPGSWWTSTESLCSNASGDSRHSAYSYCGRGFYPQYGALETRGGFNPRVERTLLDARRRLEDQAATPTGLGSLTPSAAGSTASLVGVGLPPPTPRSSGLSTPVPPSAGHLAHVREQMAGALRKLRQLEEQVKLIPVLQVKLSVLQEEKRQLTVQLKSQKFLGHPTAGRGRSELCLDLPDPPEDPVALETRSVGTWVRERDLGMPDGEAALAAKVAVLETQLKKALQELQAAQARQADPQPQAWPPPDSPVRVDTVRVVEGPREVEVVASTAAGAPAQRAQSLEPYGTGLRALAMPGRPESPPVFRSQEVVETMCPVPAAATSNVHMVKKISITERSCDGAAGLPEVPAESSSSPPGSEVASLTQPEKSTGRVPTQEPTHREPTRQAASQESEEAGGTGGPPAGVRSIMKRKEEVADPTAHRRSLQFVGVNGGYESSSEDSSTAENISDNDSTENEAPEPRERVPSVAEAPQLRPAGTAAAKTSRQECQLSRESQHIPTAEGASGSNTEEEIRMELSPDLISACLALEKYLDNPNALTERELKVAYTTVLQEWLRLACRSDAHPELVRRHLVTFRAMSARLLDYVVNIADSNGNTALHYSVSHANFPVVQQLLDSGVCKVDKQNRAGYSPIMLTALATLKTQDDIETVLQLFRLGNINAKASQAGQTALMLAVSHGRVDVVKALLACEADVNVQDDDGSTALMCACEHGHKEIAGLLLAVPSCDISLTDRDGSTALMVALDAGQSEIASMLYSRMNIKCSFAPMSDDESPTSSSAEE
In the case of B5, the “4. mL1dL2 + Dox + IFNG” value is 1.
